The results in this text go back to patent publication US20200182883A1.

In general, Kd refers to a measure of binding affinity in units of concentration. One may read the koff as the first-order rate constant of dissociation. The term kon denotes the second-order rate constant of association.

The target in this experiment is HIV-1 IIIB p24 recombinant protein (HIV-1 IIIB). As to the kind of experiment: SPR, mAb immobilized on a Protein A chip, 0-200 nM p24, room temperature. (Surface plasmon resonance follows binding to a sensor surface in real time, without labels.)

B1: N60P55 (antibody, V domains shown)
VH: QVQLRESGPGLVKPSATLSLTCIVSGGSMSGYYWSWIRQPPGKGLEWIGHIDNNERTISSPSLNSRVTVSPDTSRNRFTLTLSSVTAADTATYYCARHVVYGGLDIWGQGTLVTVSS
VL: EIVLTQSPGTLSLSPGERASLSCRASDIVSINYFAWYQQKPGQAPRLLISGASVRATGIPDRFSGSGSGTDFTLTINRLEPEDVAVYYCQQHGSSPTFGQGTKVEIK
On to B1, for which the dissociation constant Kd is 0.0917 nM, the off-rate (koff) stood at 6.55e-05 s⁻¹ and the kon worked out at 715000 M⁻¹ s⁻¹.
